B1: TRAF3IP2 (parent)
chain: KEHVPTWLQNTHVYSWPKNKKNIL

Variants of: B1
Assay: protein stability index of a GFP-peptide fusion (GPS, HEK-293T) (PSI 1-6); higher = more stable
Settings: c terminus: a fixed tail appended
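Also: lentivirally expressed fusions sorted by FACS into six bins by GFP to DsRed ratio, PSI derived from sequencing read proportions per bin multiplied by bin number.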

Protein stability index of substitutions, site by site:
L8: C 3.02; Q 3.08; T 3.45; A 3.33; E 3.88; G 3.21; S 3.01; I 2.54; N 3.2; V 2.04; R 2.98; M 3.34; W 2.63; F 2.2; H 2.76; K 2.98; Y 2.73; D 3.17; P 3.18
K20: D 2.31; H 2.21; W 2.07; S 2.64; V 1.99; T 2.96; Q 2.25; G 2.18; P 2.72; L 1.74; I 3.38; F 1.59; C 1.89; A 1.94; N 2.02; R 2.29; M 1.58; E 2.54; Y 1.81
H12: D 2.75; K 2.51; I 2.17; P 2.94; N 2.62; T 2.82; G 2.8; V 2.05; L 1.79; S 3.17; C 2.46; Q 2.55; Y 2.6; R 3.02; E 3.38; A 2.86; W 1.82; M 2.42; F 2.13
T6: N 3.38; G 2.81; I 2.21; F 1.93; K 2.73; H 2.29; Q 2.51; D 2.71; L 2.58; S 2.88; R 2.23; E 2.59; V 2.17; M 2.22; A 2.49; C 1.81; W 1.53; P 3.07; Y 2.32
P5: D 3.08; R 1.95; L 1.73; M 2.27; Q 1.45; C 1.96; G 2.38; T 2.14; A 2.66; N 2.26; I 1; H 2.06; S 2.47; W 2.76; E 2.58; V 2.24; Y 1.94; K 1.9
N19: A 2.81; P 2.43; D 3.03; G 2.56; W 1.4; S 2.61; Q 2.51; F 2.02; H 2.19; I 2.08; K 2.06; C 2.98; Y 2.03; T 2.01; L 1.55; V 2.34; R 2.3; M 1.97; E 2.72
V13: M 2.88; L 2.44; N 2.11; Y 2.62; W 2.46; A 2.5; D 3.88; C 2.49; K 3.2; S 2.75; R 3; Q 2.31; F 2.65; I 2.51; E 2.52; T 2.66; H 3.78; P 3.07
Y14: C 2.63; Q 3.06; K 2.49; G 3.05; A 3.14; H 3.46; M 2.76; S 3.4; R 2.73; W 1.98; N 3.24; T 3; V 2.69; D 3; L 2.29; E 3.14; I 3.71; F 2.05; P 2.98
S15: A 3.19; E 2.6; R 3.12; D 2.89; V 2.43; H 2.27; P 2.7; G 2.99; N 2.21; L 2.22; C 2.15; Q 2.49; T 2.54; F 1.97; Y 2.27; W 1.68; I 1.7; M 2.23; K 2.77
W7: C 3.75; L 3.2; S 3.31; I 2.61; T 3.84; P 3.21; F 2.82; A 3.39; H 3.21; D 3.07; M 3.61; G 3.99; Q 3.74; V 3.82; N 3.63; K 3.34; R 2.85; E 3.97; Y 2.88
Q9: E 2.68; V 2.65; G 2.66; P 2.81; L 2.29; Y 2.39; C 2.25; I 2.55; K 1.87; D 2.53; H 2.54; T 2.8; A 2.18; F 2.38; N 3.18; M 2.53; R 1.97; S 2.62
K18: P 3.12; I 2.05; W 1.91; L 2.41; R 3.38; M 2.42; G 2.53; Y 3.3; V 2.14; A 2.66; N 2.81; Q 3.64; S 2.1; E 2.88; C 2.33; T 2.52; H 2.37; F 2.12; D 2.17
W16: M 2.75; Q 3.36; P 3.82; R 3.9; A 3.35; L 3.02; H 3.39; K 2.81; S 3.08; E 3.77; D 3.53; T 3.68; Y 3; I 3.05; V 2.88; N 3.39; F 2.7; G 3.55; C 2.88
T11: S 2.88; R 2.54; N 3.08; G 2.64; E 2.83; D 2.52; L 2.44; F 2.53; K 2.57; A 2.67; M 2.91; W 2.3; P 2.67; I 2.55; C 2.28; Y 2.36; Q 3.04; V 2.52; H 2.38
V4: T 3.87; W 1.93; Y 2.27; S 2.77
N22: C 1.71; M 2.19; P 2.84; I 1.5; D 2.04; K 2.9; F 1.67; L 1.7; H 2.08; E 2.64; G 2.7; A 2.41
P17: A 2.22; W 2.1; L 1.85; F 2.18; I 2.1; H 2.21; C 2.36; K 2.31; G 2.17; Q 2.95; T 2.29; D 2.71; Y 2.03; N 1.95; S 2.81; E 2.23; V 1.98
N10: L 2.03; Q 2.32; C 2.07; G 2.07; P 2.64; D 3.02; V 2.85; H 2.48; Y 2.6; T 2.85; R 2.09; M 2.25; I 1.79; K 2.04; F 2.09; S 2.66; W 1.64; E 2.66; A 2.34
K21: T 2.65; I 2.12; Y 1.83; C 2.3; N 1.93; G 2.31; F 1.8; W 1.97; H 2.17; D 2.73; M 1.95; A 2.08; V 2.03; S 2.24; P 2.79; R 2.05; E 2.68; Q 2.27; L 2.18

— the supplement of paper PMC10567573
